The domain aggregation screens of Martell et al. (2025)

Experiment: soluble fraction after stress (log2 fold change); higher = more stays soluble; pooled small domains, quantitative proteomics
Details: stress: 75 degC
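Also: 20 min heating vs room temperature control held 20 min.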

| Sequence | soluble fraction (log2) |
| --- | --- |
| HMAPKSALKIIEQISNNPRATMTDLANLTGYSRRWVAQTIKRLQEENIIKRIGSDKSGYWEIIG | -0.807 |
| HMAPLATLEADGNGAVKLPNLAGHAIREVAAALGGANLALIPIGSGTSWKQNPAPGTILHKGDTVTVYF | 0.153 |
| HMAPLEPLTDRETEMLVRLANGASNKVMARESFVSENTIKFHLKNIYAKLGVTSRLQAIAAARNQGLI | -1.31 |
| HMAPLRTQYVNVNYANAAEIKTLISGADKEVGSLLSERGSVVVDKRTNTLIIQDTQARLNDIGDLIEQLD | 0.144 |
| HMAPMYGEFENVRLTDAQLDKLNARFPPEQVQREIEALSGYMRSKGKRYADHYATLLNWLRRDFPP | -0.238 |
| HMAPNVEENSKLIGEIGMTLTPLRPSGIATINNRRVDVVSNGDFIDQDERVMVKRVQGARVVVIPV | 0.168 |
| HMAPPDFTTFMRNYQDMVYSTAVRLIGNETQAEDIAQEVFIKAHAHFENLRTSPSAGGWLKTVATNLSIN | -1.2 |
| HMAPQAETLLRQVMALPSKDRAVLYLHYYEGFSTREVGDMLHISQSAVTTRLLRARKKLKEIL | -0.122 |
| HMAPRLTERERQVLQLIAEGLTSMQIGDRLHIAASTVDVHRRNLMRKLDLHNVADLTRYAITQGISP | -0.792 |
| HMAPRQDIAYYTVKPGDTVLAIAEKFGLQPETLMWSNSIIEQNPDRLSIGDELRILPVDGVLHVVK | 0.129 |
| HMAPRSSAVYFYLSQVALKKNQPRKAEAMARRGLTVSQDANRRRALWQLILRSGQAQNNTRVIREAQQAL | -0.0212 |
| HMAPSLSEYAYEEIKHAIERGVYPPGAKLITQEIADRLGISRTPVVAAVNRLTAEGYADAVPQHGIFVK | -0.073 |
| HMAPVLTRREHEVLHLLTDGLDNRTIARNLFISEATVKFHLHNIMGKFGVHRRAALVSTALRG | -2.22 |
| HMAPVTPEERAQAMEEYKAMVTIEGYTPPKNIIEQNYKRGLWSETMLNMAVTKGAITEAEKLEIMN | 0.463 |
| HMAQIVNLPRKNVNGASYYYYEVQPKETIYSISRKLGVSGAEIQRHNPSVADGLKIGQVLYFPAEG | -0.0642 |
| HMAQLPADMSKVKSADISEAQLQEFIQKATSSGYNMNQIEMEFAKRGMSENEVSLLRPRLRRLMAS | -0.0413 |
| HMAQLSDDEQAIIDTITRRGDATMSELIASVNVSTPRLMSMLIDMEFRSLITALPGGRYQIRLIN | -1.54 |
| HMAQLTPREREVLVLIAEGKSNKEIADQLNIGVRTIETHRERIMRRLNIHSVAGLTKYAIANGLVTL | -0.36 |
| HMAQPIPSGADIRAAREAAGMTLRRFAEYIAGPDFSTWSRYETGKPIRVKNISPEVWQRVRKFIAQNKG | -0.33 |
| HMAQQEMEIIPLRHRQVEQVMPTLRPLLEPGAALSGMNNQLILRASRKNREEIKQALAVIDT | 0.0427 |
| HMAQSEDLMVMAQRILGGPEAQSFFQAEATRQGLAGFLPEPIPDFLQRLERKLSGSVGSATAHAMVAQTMG | 0.0569 |
| HMAQSLAQKINNYILTNRSSIANVAKSIGYSRTTVSRYLAGKYDSDPTDLENKLAEFLAHETGE | -0.253 |
| HMAQTEIIRVTKDIKKGDAITADKFEKVKVGAYNLPGNVVKNADELKGKFAAADLVRGDYILTSKLTDNP | 0.183 |
| HMAQVRSTVERRENGTYTVELNLNDDVDNVMRLQLMVATKEMAEDLAQRFQKNPEQVYSQLVTALYG | -0.723 |
| HMAQVSDDAELEKWADTAIDEHPKPVEEYRAGNAASINFLMGQVMKMSRGKANPGAVMQILKQKLD | 0.0191 |
| HMAQVSDTGAIAKIVADAIAANPKQVQQYLDGNEKVLMYLVGQVMKLSKGKANPPMVIQLLKEQLG | -0.125 |
| HMAQVSDTGELEGVVDGVLAANAKSVADFQAGKENAFQYLIGQVMKETKGKANPEVVATLLRTKLS | -0.523 |
| HMARAGKLAQDMAVWTKETMLNTERNFISLRHFKRELLRRTLAPGESEQTVRAMEEAGYIQVKDGLVFPIK | -2.43 |
